In US12383631:

Key:
[1] = biological target: IL-18 polypeptide C144 (human) (UniProt Q14116); test: cell-based or functional assay
[2] = biological target: IL-18 polypeptide C168 (human) (UniProt Q14116); test: cell-based or functional assay
[3] = biological target: IL-18 polypeptide of SEQ ID NO: 59 (E6K, C38A, K53A) (human) (UniProt Q14116); test: cell-based or functional assay
[4] = biological target: IL-18 polypeptide of SEQ ID NO: 37 (S55A) (human) (UniProt Q14116); test: cell-based or functional assay
[5] = biological target: IL-18 polypeptide of SEQ ID NO: 62 (E6K, C38A, K53A, C127A) (human) (UniProt Q14116); test: cell-based or functional assay
[6] = biological target: IL-18 polypeptide of SEQ ID NO: 51 (T63A) (human) (UniProt Q14116); test: cell-based or functional assay
[7] = biological target: IL-18 polypeptide C147 (human) (UniProt Q14116); test: cell-based or functional assay
[8] = biological target: IL-18 polypeptide of SEQ ID NO: 43 (E06K, K53A, S55A, Y01G) (human) (UniProt Q14116); test: cell-based or functional assay
[9] = biological target: IL-18 polypeptide of SEQ ID NO: 40 (E06K, S55A) (human) (UniProt Q14116); test: cell-based or functional assay
[10] = biological target: IL-18 polypeptide C160 (human) (UniProt Q14116); test: cell-based or functional assay
[11] = biological target: Composition B (Atezolizumab/Tecentriq conjugated to IL-18 polypeptide of SEQ ID NO: 30) (human) [IgG part: P0DOX5]; test: cell-based or functional assay
[12] = biological target: Composition D (LZM-009 conjugated to IL-18 polypeptide of SEQ ID NO: 31) (human) (UniProt Q14116); test: cell-based or functional assay
[13] = biological target: IL-18 polypeptide of SEQ ID NO: 53 (K53A, T63A) (human) (UniProt Q14116); test: cell-based or functional assay
[14] = biological target: IL-18 polypeptide of SEQ ID NO: 47 (C38S, C68S, C76S, C127S) (human) (UniProt Q14116); test: cell-based or functional assay
[15] = biological target: IL-18 polypeptide C152 (human) (UniProt Q14116); test: cell-based or functional assay
[16] = biological target: IL-18 polypeptide of SEQ ID NO: 60 (E6K, C38Q, K53A) (human) (UniProt Q14116); test: cell-based or functional assay
[17] = biological target: IL-18 polypeptide C164 (human) (UniProt Q14116); test: cell-based or functional assay
[18] = biological target: IL-18 polypeptide of SEQ ID NO: 46 (E06K, K53A, S55A, M51G) (human) (UniProt Q14116); test: cell-based or functional assay
[19] = biological target: IL-18 polypeptide C155 (human) (UniProt Q14116); test: cell-based or functional assay
[20] = biological target: IL-18 polypeptide of SEQ ID NO: 48 (C38S, C68S, C76S, C127S, K70C) (human) (UniProt Q14116); test: cell-based or functional assay
[21] = biological target: IL-18 polypeptide of SEQ ID NO: 50 (E06K, K53A, T63A) (human) (UniProt Q14116); test: cell-based or functional assay
[22] = biological target: IL-18 polypeptide C157 (human) (UniProt Q14116); test: cell-based or functional assay
[23] = biological target: Composition C (Trastuzumab/Herceptin conjugated to IL-18 polypeptide of SEQ ID NO: 30) (human); test: cell-based or functional assay
[24] = biological target: IL-18 polypeptide of SEQ ID NO: 36 (K53A) (human) (UniProt Q14116); test: cell-based or functional assay
[25] = biological target: IL-18 polypeptide C149 (human) (UniProt Q14116); test: cell-based or functional assay
[26] = biological target: IL-18 polypeptide of SEQ ID NO: 5 (E6K, V11I, C38A, K53A, T63A, C68A, C76A, M86C, C127A) (human) (UniProt Q14116); test: cell-based or functional assay
[27] = biological target: IL-18 polypeptide C166 (human) (UniProt Q14116); test: cell-based or functional assay
[28] = biological target: IL-18 polypeptide of SEQ ID NO: 41 (K53A, S55A) (human) (UniProt Q14116); test: cell-based or functional assay
[29] = biological target: IL-18 polypeptide of SEQ ID NO: 38 (E06K) (human) (UniProt Q14116); test: cell-based or functional assay
[30] = biological target: native IL-18 wild-type (SEQ ID NO: 1) (human) (UniProt Q14116); test: cell-based or functional assay
[31] = biological target: IL-18 polypeptide of SEQ ID NO: 35 (Y01G, F02A, E06K, M51G, K53A, D54A, S55A, T63A) (human) (UniProt Q14116); test: cell-based or functional assay
[32] = biological target: IL-18 polypeptide of SEQ ID NO: 4 (E6K, C38A, K53A, C68A, M86C) (human) (UniProt Q14116); test: cell-based or functional assay
[33] = biological target: IL-18 polypeptide C165 (human) (UniProt Q14116); test: cell-based or functional assay
[34] = biological target: IL-18 polypeptide C158 (human) (UniProt Q14116); test: cell-based or functional assay
[35] = biological target: Composition D (LZM-009 conjugated to IL-18 polypeptide of SEQ ID NO: 31) (human) (UniProt Q14116)
[36] = biological target: Composition A (LZM-009 conjugated to IL-18 polypeptide of SEQ ID NO: 30) (human) (UniProt Q14116)
[37] = biological target: Composition C (Trastuzumab/Herceptin conjugated to IL-18 polypeptide of SEQ ID NO: 30) (human)
[38] = biological target: IL-18 polypeptide of SEQ ID NO: 31 (C38A, C76A, C127A) (human) (UniProt Q14116)
[39] = biological target: native IL-18 wild-type (SEQ ID NO: 1) (human) (UniProt Q14116)

Q: With “Fc fused human IL-18 binding protein isoform a (IL-18BPa; R&D systems, Cat #119-BP) (from UniProt O95998 31-194) (Fc fusion)” as the substance, how does the IC50 of IL-18BP on IFNγ secretion, NK92 cells [1] read?
A: 7.52 nM

Q: And the IC50 of IL-18BP on IFNγ secretion, NK92 cells [2]?
A: 0.176 nM

Q: And the IC50 of IL-18BP on IFNγ secretion, NK92 cells [3]?
A: 654 nM

Q: And the IC50 of IL-18BP on IFNγ secretion, NK92 cells [4]?
A: 4.46 nM

Q: And the IC50 of IL-18BP on IFNγ secretion, NK92 cells [5]?
A: 284 nM

Q: And the IC50 of IL-18BP on IFNγ secretion, NK92 cells [6]?
A: 0.239 nM

Q: What about the IC50 of IL-18BP on IFNγ secretion, NK92 cells [7] of the same substance?
A: 47.6 nM

Q: What about the IC50 of IL-18BP on IFNγ secretion, NK92 cells [8] of the same substance?
A: 27.8 nM

Q: And the IC50 of IL-18BP on IFNγ secretion, NK92 cells [9]?
A: 15 nM

Q: What about the IC50 of IL-18BP on IFNγ secretion, NK92 cells [10] of the same substance?
A: 3.18 nM

Q: What about the IC50 of IL-18BPa on IFNγ secretion by NK92 cells [11] of the same substance?
A: > 1000 nM

Q: And the IC50 of IL-18BPa on IFNγ secretion by NK92 cells [12]?
A: 0.098 nM

Q: And the IC50 of IL-18BP on IFNγ secretion, NK92 cells [13]?
A: 18.2 nM

Q: And the IC50 of IL-18BP on IFNγ secretion, NK92 cells [14]?
A: 0.444 nM

Q: What about the IC50 of IL-18BP on IFNγ secretion, NK92 cells [15] of the same substance?
A: 7.85 nM

Q: And the IC50 of IL-18BP on IFNγ secretion, NK92 cells [16]?
A: 780 nM

Q: What about the IC50 of IL-18BP on IFNγ secretion, NK92 cells [17] of the same substance?
A: 0.456 nM

Q: And the IC50 of IL-18BP on IFNγ secretion, NK92 cells [18]?
A: 0.189 nM

Q: And the IC50 of IL-18BP on IFNγ secretion, NK92 cells [19]?
A: 3.23 nM

Q: And the IC50 of IL-18BP on IFNγ secretion, NK92 cells [20]?
A: 0.114 nM

Q: What about the IC50 of IL-18BP on IFNγ secretion, NK92 cells [21] of the same substance?
A: > 1000 nM

Q: What about the IC50 of IL-18BP on IFNγ secretion, NK92 cells [22] of the same substance?
A: 6.08 nM

Q: What about the IC50 of IL-18BPa on IFNγ secretion by NK92 cells [23] of the same substance?
A: 21.4 nM

Q: What about the IC50 of IL-18BP on IFNγ secretion, NK92 cells [24] of the same substance?
A: 27.3 nM

Q: What about the IC50 of IL-18BP on IFNγ secretion, NK92 cells [25] of the same substance?
A: 1.17 nM

Q: What about the IC50 of IL-18BP on IFNγ secretion, NK92 cells [26] of the same substance?
A: 62.4 nM

Q: What about the IC50 of IL-18BP on IFNγ secretion, NK92 cells [27] of the same substance?
A: 0.44 nM

Q: What about the IC50 of IL-18BP on IFNγ secretion, NK92 cells [28] of the same substance?
A: 37.3 nM

Q: What about the IC50 of IL-18BP on IFNγ secretion, NK92 cells [29] of the same substance?
A: 7.79 nM

Q: What about the IC50 of IL-18BP on IFNγ secretion, NK92 cells [30] of the same substance?
A: 1.47 nM

Q: And the IC50 of IL-18BPa on IFNγ secretion by NK92 cells [30]?
A: 0.781 nM

Q: What about the IC50 of IL-18BP on IFNγ secretion, NK92 cells [31] of the same substance?
A: > 55 nM

Q: And the IC50 of IL-18BP on IFNγ secretion, NK92 cells [32]?
A: 396 nM

Q: What about the IC50 of IL-18BP on IFNγ secretion, NK92 cells [33] of the same substance?
A: 0.885 nM

Q: And the IC50 of IL-18BP on IFNγ secretion, NK92 cells [34]?
A: 3.98 nM

Q: What about the IC50 (read off the curve), IFNg secretion of the stimulated NK92 cells (IFNg AlphaLISA signal) [35] of the same substance?
A: 0.1 nM

Q: What about the IC50 (read off the curve), IFNg secretion of the stimulated NK92 cells (IFNg AlphaLISA signal) [36] of the same substance?
A: 8 nM

Q: What about the IC50 (read off the curve), IFNg secretion of the stimulated NK92 cells (IFNg AlphaLISA signal) [37] of the same substance?
A: 10 nM

Q: What about the IC50 (read off the curve), IFNg secretion of the stimulated NK92 cells (IFNg AlphaLISA signal) [38] of the same substance?
A: 0.3 nM

Q: And the IC50 (read off the curve), IFNg secretion of the stimulated NK92 cells (IFNg AlphaLISA signal) [39]?
A: 1 nM
